Experimental findings from the supplement of paper PMC10567573 are described below.

± gives the standard deviation.

The nature of this data set: protein stability index of a GFP-peptide fusion (GPS, HEK-293T) (PSI 1-6); higher = more stable. As to conditions: c terminus: a fixed tail appended.
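Also: 24-mer peptide tiles fused after GFP, lentivirally expressed, FACS-sorted into six equal bins by GFP/DsRed ratio, decoded by Illumina sequencing, PSI is the read-weighted mean bin number.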

For the sequence AMVTADSKYCYGPQGSRSPYIPPH [FKBP8], the protein stability index (treatment: DMSO) was determined as 3.27 ± 0.42 and the protein stability index (treatment: MLN4924 1 uM, 8 h) is 3.13 ± 0.26.

Turning to AMVWALDLDDFAGFSCNQGRYPLI [CHIT1], the protein stability index is, setting by setting: (treatment: DMSO) 2.5 ± 0.56; (treatment: MLN4924 1 uM, 8 h) 2.65 ± 0.63.

The sequence APDAHFTVDKQNISLWPREPPPKS [CD207] gave a protein stability index (treatment: DMSO) of 4.73 ± 0.24 and a protein stability index (treatment: MLN4924 1 uM, 8 h) of 4.78 ± 0.27.

For APDLVLNAEMVQQTTYLEDRPMFM [LOXL2], the protein stability index reads like this: (treatment: DMSO) 3.25 ± 0.18; (treatment: MLN4924 1 uM, 8 h) 3.43 ± 0.17.

For the sequence APEFIKVRENLRRIATLTSEEREL [FAM107A], the protein stability index (treatment: DMSO) was found to be 4.48 ± 0.31 and the protein stability index (treatment: MLN4924 1 uM, 8 h) worked out at 4.62 ± 0.16.

In the case of APKAGLEEAPAVTAGLKIFEPPAP [TNFSF13B], the protein stability index was 4.6 ± 0.26 (treatment: DMSO) and 4.68 ± 0.086 (treatment: MLN4924 1 uM, 8 h).

As to APVILVGCQLDLRYADLEAVNRAR [RHOBTB2], the protein stability index is 2.57 ± 0.17 (treatment: DMSO) and 2.45 ± 0.21 (treatment: MLN4924 1 uM, 8 h).

With APYAAAAAAQSYPGYLPYSPEPPS [IRX6], the protein stability index was found to be 4.06 ± 0.14 (treatment: DMSO) and 4.2 ± 0.15 (treatment: MLN4924 1 uM, 8 h).

As for AQVLMLGQILELPWKEETFLVLQS [FANCE], the protein stability index was determined as 2.47 ± 0.33 (treatment: DMSO) and 2.65 ± 0.67 (treatment: MLN4924 1 uM, 8 h).

In the case of ARGIAGEKFDIVKKWGINTYKCTK [ARFIP2], the protein stability index by setting is: (treatment: DMSO) 3.3 ± 0.35; (treatment: MLN4924 1 uM, 8 h) 3.27 ± 0.077.

For the sequence ARHLREYQELLNVKMALDIEIATY [PRPH], the protein stability index is, setting by setting: (treatment: DMSO) 2.34 ± 0.4; (treatment: MLN4924 1 uM, 8 h) 2.4 ± 0.37.

Turning to ARLLQEGGGGVAAVVVLDQGSRHW [DUSP5], the protein stability index by setting is: (treatment: DMSO) 2.64 ± 0.97; (treatment: MLN4924 1 uM, 8 h) 2.44 ± 0.75.

As to ARQETKEMARKVIEHCSNFKEENM [ZER1], the protein stability index is, setting by setting: (treatment: DMSO) 4.74 ± 0.23; (treatment: MLN4924 1 uM, 8 h) 4.57 ± 0.45.

In the case of ASESEHIPKPQSTGWFGGGFTSYL [MIA2], the protein stability index was 2.4 ± 0.37 (treatment: DMSO) and 2.69 ± 0.34 (treatment: MLN4924 1 uM, 8 h).

For ASSASLEPMWSGSTMRRMALRPTA [EMID1], the protein stability index (treatment: DMSO) stood at 3.43 ± 0.23 and the protein stability index (treatment: MLN4924 1 uM, 8 h) worked out at 3.64 ± 0.43.

Turning to ATTASPAKVDSSGVIDLFGDAFGS [SNAP91], the protein stability index runs as follows: (treatment: DMSO) 4.06 ± 0.2; (treatment: MLN4924 1 uM, 8 h) 4.42 ± 0.15.

For the sequence ATYLRCQLLLIKALQEKLWNVAAP [INTS4], the protein stability index by setting is: (treatment: DMSO) 3.16 ± 0.3; (treatment: MLN4924 1 uM, 8 h) 2.9 ± 0.39.

In the case of AVKLADFGLAIEVEGEQQAWFGFA [CAMK2A], the protein stability index runs as follows: (treatment: DMSO) 2.51 ± 0.48; (treatment: MLN4924 1 uM, 8 h) 2.26 ± 0.5.

On to AVVASSVNSYYSSPAQQVPKNPAL [TOR1AIP2], for which the protein stability index is, setting by setting: (treatment: DMSO) 3.51 ± 0.16; (treatment: MLN4924 1 uM, 8 h) 3.46 ± 0.18.

Consider AWAAHTRLFQVVGKTDDTLALLNL [TMEM175], for which the protein stability index (treatment: DMSO) came out at 2.25 ± 0.13 and the protein stability index (treatment: MLN4924 1 uM, 8 h) came out at 2.03 ± 0.042.

Take AYMDRRDHPLPEVAHVKHLSASQK [COX4I1]: the protein stability index (treatment: DMSO) was 4.34 ± 0.32 and the protein stability index (treatment: MLN4924 1 uM, 8 h) is 4.6 ± 0.32.

As to CAFVGALGGAAFLGTAIFIEADRR [SPNS1], the protein stability index is, setting by setting: (treatment: DMSO) 2.8 ± 0.78; (treatment: MLN4924 1 uM, 8 h) 2.36 ± 0.67.

In the case of CDALRTLAEARRLFPGRVSVDLML [RSAD1], the protein stability index is 2.05 ± 0.33 (treatment: DMSO) and 2.03 ± 0.37 (treatment: MLN4924 1 uM, 8 h).

In the case of CEKTFRDKNTLKDHMRKKQHRKIN [ZNF277], the protein stability index was found to be 3.77 ± 0.21 (treatment: DMSO) and 3.71 ± 0.31 (treatment: MLN4924 1 uM, 8 h).

CFQSCLCCCCYQSKSLMTSVPMNG [EDNRA]: the protein stability index worked out at 2.31 ± 0.53 (treatment: DMSO) and 2.41 ± 0.18 (treatment: MLN4924 1 uM, 8 h).

CGPPSLGAVLALVAIFIMSLNKRH [MFSD9]: the protein stability index runs as follows: (treatment: DMSO) 3.3 ± 0.89; (treatment: MLN4924 1 uM, 8 h) 3.41 ± 1.1.

In the case of CGTPLRKSNFRVQLFEDPTVDKEV [MNAT1], the protein stability index by setting is: (treatment: DMSO) 3.84 ± 0.09; (treatment: MLN4924 1 uM, 8 h) 3.75 ± 0.16.

Take CLMLLMGTVHCQIVSTQITRPSGN [PHTF1]: the protein stability index is 3.12 ± 0.47 (treatment: DMSO) and 2.84 ± 0.47 (treatment: MLN4924 1 uM, 8 h).

Take CLPPEPSPDDPESVKIIFKLPNDS [FAF2]: the protein stability index came out at 4.76 ± 0.17 (treatment: DMSO) and 4.82 ± 0.13 (treatment: MLN4924 1 uM, 8 h).

In turn, CMVGYDMGATRCDFTLSKTNMARI [CPXM2] came in with a protein stability index (treatment: DMSO) of 2.24 ± 0.6 and a protein stability index (treatment: MLN4924 1 uM, 8 h) of 2.1 ± 0.22.

For CNECAKLIIQAGIKEVIFMSDKYH [DCTD], the protein stability index is, setting by setting: (treatment: DMSO) 2.01 ± 0.81; (treatment: MLN4924 1 uM, 8 h) 2.43 ± 0.41.

For CNECGKAFRWGAHLVQHQRIHSGE [ZNF232], the protein stability index (treatment: DMSO) was 4.44 ± 0.56 and the protein stability index (treatment: MLN4924 1 uM, 8 h) is 4.53 ± 0.26.

Regarding CPQSLPCFEASDCKESSPMPVICG [NANOGP8], the protein stability index was 3.77 ± 0.18 (treatment: DMSO) and 3.89 ± 0.083 (treatment: MLN4924 1 uM, 8 h).

Turning to CQACRFMKCLKVGMLKEGVRLDRV [ESRRG], the protein stability index is, setting by setting: (treatment: DMSO) 2.6 ± 0.45; (treatment: MLN4924 1 uM, 8 h) 2.04 ± 0.16.

In the case of CQQNMIQELIETNQQLRNELQLEQ [CEP70], the protein stability index amounted to 4.12 ± 0.26 (treatment: DMSO) and 3.85 ± 0.51 (treatment: MLN4924 1 uM, 8 h).

Take CSGTELSLAHCRHDGEDVACPQGG [LOXL2]: the protein stability index is 4.78 ± 0.73 (treatment: DMSO) and 4.3 ± 0.24 (treatment: MLN4924 1 uM, 8 h).
